Key:
[1] = biological target: wild type p53 (bacterially purified, commercial), P04637
[2] = biological target: mutant p53 (bacterially purified, commercial), P04637

B1: GRAIL C-terminal fragment (amino acids 229-428), recombinant (protein)
chain: YSARRLRNARAQSRKQRQLKADAKKAIGRLQLRTLKQGDKEIGPDGDSCAVCIELYKPNDLVRILTCNHIFHKTCVDPWLLEHRTCPMCKCDILKALGIEVDVEDGSVSLQVPVSNEISNSASSHEEDNRSETASSGYASVQGTDEPPLEEHVQSTNESLQLVNHEANSVAVDVIPHVDNPTFEEDETPNQETAVREIKS
Question: How did the “in vitro ubiquitination assay (UBE1, UBCH5, Myc-tagged ubiquitin), immunoblot” value [1] turn out when B1 was run?
Answer: a C-terminal RF containing GRAIL fragment is efficient in polyubiquitinating mutant p53 as compared to wild type protein

Question: And the “in vitro ubiquitination assay (UBE1, UBCH5, Myc-tagged ubiquitin), immunoblot” value [2]?
Answer: a C-terminal RF containing GRAIL fragment is efficient in polyubiquitinating mutant p53 as compared to wild type protein

— patent publication US20260055150
